# T1: proteasome (Saccharomyces cerevisiae, UniProt P43593)
# T1 sequence (P43593 1-499): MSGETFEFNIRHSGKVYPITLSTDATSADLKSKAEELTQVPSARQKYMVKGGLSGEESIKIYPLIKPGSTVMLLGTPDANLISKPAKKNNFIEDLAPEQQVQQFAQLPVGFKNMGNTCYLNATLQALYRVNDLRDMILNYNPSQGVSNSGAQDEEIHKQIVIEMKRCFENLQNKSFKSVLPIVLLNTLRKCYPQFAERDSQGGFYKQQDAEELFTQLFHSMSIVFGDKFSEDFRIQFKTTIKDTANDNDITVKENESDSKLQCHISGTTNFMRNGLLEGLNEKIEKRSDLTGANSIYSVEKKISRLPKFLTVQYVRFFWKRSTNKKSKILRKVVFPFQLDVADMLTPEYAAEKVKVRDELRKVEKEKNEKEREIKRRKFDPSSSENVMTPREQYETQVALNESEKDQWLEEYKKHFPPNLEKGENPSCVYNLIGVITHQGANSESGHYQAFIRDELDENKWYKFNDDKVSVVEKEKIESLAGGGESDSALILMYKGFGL
# What was measured:
# [1] = test system: ubiquitin ethyl ester; details: cited from earlier work
# [2] = target: T1, proteasome; details: cited from earlier work
# [3] = target: T2, RP purified from a ubp6Δ mutant (Saccharomyces cerevisiae, UniProt P43588); experiment: Processing of ub-cyclin B by regulatory particle (RP); assay type: biochemical, yeast; details: RP 135 nM, four-fold molar excess of Ubp6 species
# T2 construct: TEV-ProA (TEV site + protein A), chromosomally integrated (C); made in house
# Protocol: FIGS. 6A and 6B depict the processing of ub-cyclin B by RP (ubp6Δ) in the presence or absence of purified Ubp6. Reactions were visualized by immunoblotting with anti-cyclin B antibody or anti-ubiquitin antibody, as indicated.
# FIG. 12 is an illustration depicting the RP-mediated disassembly of Ub-cyclin B conjugates by Ubp6. Proteasome regulatory particle (135 nM) purified from a ubp6Δ strain was combined with a four-fold molar excess of Ubp6, Ubp6-ublΔ, or Ubp6-C118A, and Ub-Cyclin B, and incubated for the indicated times. Reactions were visualized by immunoblot with anti-ubiquitin antibody. *represents a non-ubiquitin immunoreactive band.
# A previously described procedure for purification of the proteasome (Leggett, et al. (2002). Multiple associated proteins regulate proteasome structure and function. Mol. Cell. 10, 495-507) was modified by adding 1 mM ATP and 5 mM MgCl2 to all purification buffers, and by washing resins with 100 bed vol. of buffer containing 50 mM NaCl, as opposed to 50 bed vol. of buffer containing 100 mM NaCl. RP was purified in the presence of ATP and MgCl2 as described (Leggett et al., 2002).
# Proteasomes (135 nM) were incubated with ub-cyclin Bin the presence of 1 mM ATP and buffer (50 mM Tris [pH 7.51, 1 mM EDTA, 5 mM MgCl2) for the indicated times. […]
# [4] = target: T3, ubp6Δ proteasomes (Saccharomyces cerevisiae, UniProt P30656+P43588); experiment: In vitro ub-cyclin B deubiquitination/degradation assay with purified yeast proteasomes; assay type: biochemical; details: ubp6Δ proteasomes 135 nM; recombinant Ubp6 or Usp14 species 540 nM, Ubl and Ubl-MBP 1.35 μM, preincubated 5 min; immunoblot
# T3 construct: proteasomes purified from ubp6Δ mutants; TEV-ProA (TEV site + protein A), chromosomally integrated (C); made in house
# Protocol: Proteasomes (135 nM) were incubated with ub-cyclin Bin the presence of 1 mM ATP and buffer (50 mM Tris [pH 7.51, 1 mM EDTA, 5 mM MgCl2) for the indicated times. Reactions were terminated by the addition of 5×SDS Laemmli loading buffer (Leggett, et al. (2002). Multiple associated proteins regulate proteasome structure and function. Mol. Cell. 10, 495-507) and boiled for 5 min. Where indicated, recombinant, purified Ubp6 or Usp14 species (540 nM) were preincubated with proteasomes for 5 min prior to the reaction. […] Unless otherwise noted, immunoblots were visualized with anti-cyclin B1 polyclonal antibodies. Polyclonal antibodies recognizing Ubp6, Rpn5, Rpn12, and ubiquitin were used as indicated. Ub-cyclin B was added in molar excess over proteasome, generally on the order of 25-fold, except for FIGS. 4C, 6A and 6B, where the substrate:enzyme ratio was increased by a factor of five.
# In the experiments of FIGS. 1, 4 (except FIG. 4C), and 6C, time points were sampled after the preparation of a single reaction mixture. The zero time points therefore reflect a lag which represents the amount of time required to sample the first time point after having prepared the reaction mixture. […] In the experiments of FIGS. 2, 4C, and 6 (except 6C), each time point was carried out as an independent reaction. The zero time points were prepared in the presence of 5×LLB, and accordingly, no processing could occur before time zero.
# Ubiquitination of cyclin B was carried out. Briefly, for each 30 μl reaction, Anaphase Promoting Complex (APC) was immunopurified from 600 μl of mitotic Xenopus egg extract with 12 μg of anti-Cdc27 antibodies (AF3.1, Santa Cruz Biotechnologies, Santa Cruz, Calif.) bound to 30 μl of Affiprep Protein A beads (Bio-Rad, Hercules, Calif.). Beads were washed three times with XB high salt (10 mM potassium HEPES pH 7.7, 500 mM KCl, 0.1 mM CaCl2, 1 mM MgCl2), two times with XB (same but with 100 mM KCl), and then three times into the reaction buffer (20 mM Tris pH 7.5, 100 mM KCl, 2.5 mM MgCl2, 2 mM ATP). Ubiquitination reactions contained immunoprecipitated APC on 30 μl of beads, and 30 μl of a mix containing recombinant MBP-human E1 at 200 μg/ml, histidine-tagged Ubc4 at 66 μg/ml, ubiquitin at 1.25 mg/ml, and 50 μg/ml of histidine-tagged cyclin B1/cdc2 complex expressed in baculovirus. Reactions were incubated for 90 minutes at 22° C. with agitation on a shaker at 1,000 RPM. Reaction supernatants were combined with the eluate from the wash of beads with 20 μl of reaction buffer. Reactions were either used fresh after preparation or frozen at −80° C. until use with purified proteasomes.
# [5] = target: T3, ubp6Δ proteasomes; experiment: Quantitation of proteasome inhibition by quantitative mass spectrometry of cyclin B; assay type: biochemical, yeast; details: 20-minute incubation
# Protocol: A standard substrate degradation assay was carried out, and analyzed in parallel by SDS-PAGE followed by Coomassie blue staining and immunoblot with anti-cyclin B antibody. Immunoblots were used to identify and excise the cyclin B-containing regions of the Coomassie-stained gel, and the lanes were analyzed by mass spectrometry.
# To quantify the extent of proteasome inhibition by Ubp6, a method of quantitative mass spectrometry was utilized. After a 20-minute incubation, approximately half of the total cyclin B was degraded by ubp6Δ proteasomes (FIG. 4C).
molecule,measurement,setting,value
"Ubp6: yeast proteasomal deubiquitinating enzyme, endogenous proteasome inhibitor; purified recombinant protein (protein) MSGETFEFNIRHSGKVYPITLSTDATSADLKSKAEELTQVPSARQKYMVKGGLSGEESIKIYPLIKPGSTVMLLGTPDANLISKPAKKNNFIEDLAPEQQVQQFAQLPVGFKNMGNTCYLNATLQALYRVNDLRDMILNYNPSQGVSNSGAQDEEIHKQIVIEMKRCFENLQNKSFKSVLPIVLLNTLRKCYPQFAERDSQGGFYKQQDAEELFTQLFHSMSIVFGDKFSEDFRIQFKTTIKDTANDNDITVKENESDSKLQCHISGTTNFMRNGLLEGLNEKIEKRSDLTGANSIYSVEKKISRLPKFLTVQYVRFFWKRSTNKKSKILRKVVFPFQLDVADMLTPEYAAEKVKVRDELRKVEKEKNEKEREIKRRKFDPSSSENVMTPREQYETQVALNESEKDQWLEEYKKHFPPNLEKGENPSCVYNLIGVITHQGANSESGHYQAFIRDELDENKWYKFNDDKVSVVEKEKIESLAGGGESDSALILMYKGFGL",KM of Ubp6 for ubiquitin ethyl ester,[1],so high as to be unmeasurable
same,activation of Ubp6's catalytic activity on binding to the proteasome,[2],over 300 fold
same,processing of ub-cyclin B conjugates by RP,[3],chain shortening
same,inhibition of cyclin B degradation,[4],marked inhibition of cyclin B degradation
same,inhibition of degradation (cyclin B),[5],approximately 70%

# — patent publication US9201073B2, “Methods and compositions for enhancing proteasome activity” (President and Fellows of Harvard College, priority 2007, dated 2015)
